The values below are quoted from earlier work in patent US10663473B2, “Method of identifying a status of a mucosal intestinal epithelial barrier to improve treatment of inflammatory bowel disease” (Maximus Diagnostic Technologies LLC, priority 2016, dated 2020).

This data set concerns IBD patients. To be noted: all CD patients.

B1: certolizumab pegol: anti-TNF agent, trade name Cimzia, sold by UCB S.A. (antibody, chains of the INN, looked up, V domains shown)
VH: EVQLVESGGGLVQPGGSLRLSCAASGYVFTDYGMNWVRQAPGKGLEWMGWINTYIGEPIYADSVKGRFTFSLDTSKSTAYLQMNSLRAEDTAVYYCARGYRSYAMDYWGQGTLVTVSS
VL: DIQMTQSPSSLSASVGDRVTITCKASQNVGTNVAWYQQKPGKAPKALIYSASFLYSGVPYRFSGSGSGTDFTLTISSLQPEDFATYYCQQYNIYPLTFGQGTKVEIK
modifications: Fab' PEG
Regarding B1, the “long-term clinical response rate” value is on record as 50%.
